Publication PMC12376597, “High‐Throughput MicroED for Probing Ion Channel Dynamics” (Advanced Science, 2025)

Experiments:
[1] = molecular target: NaK2CNG, mutant of NaK with the selectivity filter substituted to TVGDTPP, lacking the first 19 residues (UniProt Q81HW2); assay: crystal structure; MicroED (electron diffraction) of single microcrystals grown in Tris pH 8.0 and 60-80% MPD; protein in 0.2% DM with 150 mM NaCl (NaK) or 150 mM KCl (NaK2CNG); space group I4, two monomers in the asymmetric unit, tetramers generated by crystal symmetry
[2] = molecular target: the molecule itself; assay: as above

Molecule	stoichiometry N [1]	stoichiometry N [2]
NaK2CNG, mutant of NaK with the selectivity filter substituted to TVGDTPP, lacking the first 19 residues (from UniProt Q81HW2 20-114) (natural protein)	4	
NaK, non-selective ion channel, lacking the first 19 residues (natural protein, UniProt Q81HW2 20-114, looked up, NaK non-selective cation channel, construct lacking the first 19 residues; model for molecular replacement was PDB 3E89; Tetrameric channel; in space group I4 the tetramer is generated from one monomer by crystal symmetry, and the two monomers of the asymmetric unit give two tetramers; also called NaK channel) KDKEFQVLFVLTILTLISGTIFYSTVEGLRPIDALYFSVVTLTTVGDGNFSPQTDFGKIFTILYIFIGIGLVFGFIHKLAVNVQLPSILSNRKKE		4
